Data from PMC8409457, “An evolution-inspired strategy to design disulfide-rich peptides tolerant to extensive sequence manipulation†” (Chemical Science, 2021).
Bridges are numbered along the chain shown (N, C = ends). Where no end group is shown, it is not given here.

Tests used:
MDM2 = biological target: T1, MDM2 (UniProt Q00987 1-491); assay: fluorescence polarisation; competition assay on MDM2 (reported assay, ref. 17); peptides purified by HPLC to >95%; tracer not named; details: both partners purified
T1 construct: MDM2, the protein target of pb13

streptavidin = biological target: T2, streptavidin (UniProt P22629 25-183); assay: SPR; binding of peptide to streptavidin; details: both partners purified
T2 construct: streptavidin, model target; Source may be told in the ESI
T2 sequence (P22629 25-183): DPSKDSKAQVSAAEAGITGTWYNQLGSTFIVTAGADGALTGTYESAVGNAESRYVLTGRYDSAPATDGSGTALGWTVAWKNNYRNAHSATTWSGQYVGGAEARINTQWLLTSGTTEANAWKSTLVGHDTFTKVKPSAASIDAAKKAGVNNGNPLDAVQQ

T1 sequence (Q00987 whole entry): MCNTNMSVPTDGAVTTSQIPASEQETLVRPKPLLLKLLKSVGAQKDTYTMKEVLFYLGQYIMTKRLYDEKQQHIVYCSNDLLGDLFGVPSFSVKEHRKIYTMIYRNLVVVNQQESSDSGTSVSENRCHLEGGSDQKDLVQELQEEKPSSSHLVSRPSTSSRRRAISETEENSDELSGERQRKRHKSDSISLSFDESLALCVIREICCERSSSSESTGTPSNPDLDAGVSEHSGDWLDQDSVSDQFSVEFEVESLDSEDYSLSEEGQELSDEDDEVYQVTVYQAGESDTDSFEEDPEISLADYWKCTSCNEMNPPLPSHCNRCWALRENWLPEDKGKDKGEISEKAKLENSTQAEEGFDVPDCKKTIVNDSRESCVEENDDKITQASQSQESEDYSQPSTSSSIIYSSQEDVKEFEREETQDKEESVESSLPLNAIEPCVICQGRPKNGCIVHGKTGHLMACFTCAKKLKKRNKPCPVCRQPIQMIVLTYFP

Binder: GCEKATESESPCPCIFPELCPWIVCC (disulfide 12-25, 14-20, 2-26) [oxidized peptide 15]
- Ki (MDM2): 89 nM

Binder: GCGSDEACFCPCSHPENCPMAQHC (disulfide (positions not given here)) [tricyclic peptide 17]
- Kd (streptavidin): 38 nM
